Measurements as given in PMC5286483, “Effect of R119G Mutation on Human P5CR1 Dynamic Property and Enzymatic Activity” (BioMed Research International, 2017).
Numbering of substitutions follows the chain as printed. Numbers in names are those of the source.

B1: Human P5CR1 R119G mutant (enzyme, UniProt P32322 1-319, looked up)
chain: MSVGFIGAGQLAFALAKGFTAAGVLAAHKIMASSPDMDLATVSALRKMGVKLTPHNKETVQHSDVLFLAVKPHIIPFILDEIGADIEDRHIVVSCAAGVTISSIEKKLSAFRPAPRVIGCMTNTPVVVREGATVYATGTHAQVEDGRLMEQLLSSVGFCTEVEEDLIDAVTGLSGSGPAYAFTALDALADGGVKMGLPRRLAVRLGAQALLGAAKMLLHSEQHPGQLKDNVSSPGGATIHALHVLESGGFRSLLINAVEASCIRTRELQSMADQEQVSPAAIKKTILDKVKLDSPAGTALSPSGHTKLLPRSLAPAGKD
notes: Pyrroline-5-carboxylate reductase 1 (P5CR1), human, encoded by PYCR1, with the ARCL-associated mutation R119G; monomer molecular weight printed as 33.3 kDa; Made by PCR mutagenesis of WT-pET28a-P5CR1; also called R119G P5CR1; pET28a-P5CR1-R119G; source: E. coli BL21 (DE3), inclusion bodies, denatured in 6 M urea, purified (Ni2+-chelating column), renatured, SEC
B2: Human P5CR1 R119H mutant (enzyme, UniProt P32322 1-319, looked up)
chain: B1 chain with G119H
notes: Pyrroline-5-carboxylate reductase 1 (P5CR1), human, encoded by PYCR1, with the mutation R119H; source: expressed mostly as inclusion bodies, purified with a Ni2+-chelating column; plasmid constructed 'by the previous method'

How the values were obtained:
[1] = target: the molecule itself; test: SEC; Superdex-75 column (10/300 mm), 20 mM Caps, pH 9.4, 0.5 M NaCl, 0.5 mL/min; refolded R119G mutant
[2] = target: the molecule itself; test: SEC; R119H mutant (Fig. S4); column and buffer not stated

Protein	stoichiometry N [1]	stoichiometry N [2]
B1	2	–
B2	–	2
